Laboratory results: paper PMC2169435

What was measured:
[1] = molecular target: PS1 COOH-terminal bait (human); test: two-hybrid
[2] = molecular target: PS2 COOH-terminal 39-amino acid bait (residues K410-I448) (human) (UniProt P49810); test: two-hybrid
Chain of PS2 COOH-terminal 39-amino acid bait (residues K410-I448) (human) (P49810 410-448): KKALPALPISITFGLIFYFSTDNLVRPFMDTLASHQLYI

Row | Substance | fold beta-galactosidase activity over negative-control baits [1] [fold] | fold beta-galactosidase activity over negative-control baits [2] [fold]
1 | near full-length ubiquilin Y2H prey clone (residues 37-595) (domain or fragment) | > 12 | > 55
2 | ubiquilin Y2H prey clone encoding the COOH-terminal 218 residues (domain or fragment) | – | > 55
